Measured values published in paper PMC4754655 (Scientific Reports, 2016).

Tests used:
Settings in all cases: both partners purified
JRFL gp140-F trimer = target: T1, JRFL gp140-F trimer (HIV-1 isolate JRFL (clade B), UniProt Q75760, stabilised); assay: ELISA; Env glycoprotein coated at 2 ug/ml in PBS pH 7.4 overnight at 4 C; IgG 5-fold serially diluted, 1 hour at RT; HRP goat anti-human IgG (H+L)
T1 construct: also called JRFL foldon trimers; source: 293 F cells

[1] = target: T2, YU2 gp120, soluble monomer (HIV-1 isolate YU2 (clade B), UniProt P35961); assay: as above
YU2 gp140-foldon trimer = target: T3, YU2 gp140-foldon trimer (HIV-1 isolate YU2 (clade B), UniProt P35961, stabilised); assay: as above
T3 construct: also called eliciting gp140-F immunogen; gp140 trimers; source: 293 F cells; not shown: His tag, C-terminal, kept

[2] = target: T2, YU2 gp120, soluble monomer; assay: BLI

Row | Binder | binding result (JRFL gp140-F trimer) | binding result [1] | binding result (YU2 gp140-foldon trimer) | binding result [2]
1 | GEBT391, mature IgG (antibody, V domains shown) VH: QVQLVESGGGLVQPGGSLRLSCAASGFTFSSYGMHWVRQAPGKGLEWVAVIWFDGSEKYYVDSVKDRFTISRDNSKNMLYLQMNNLKLDDTAVYYCARRGCTGSGCYLYYYALDSWGQGVVVTVSS VL: DIQMTQSPSSLSASVGDTVTITCRASQGISSYLNWFQQKPGKAPKLLIYAATTLQSGVPSRFSGSGSGTDFTLTISSLQPEDFATYYCLQHNFYPYSFGQGTKVEIK | binds | binds | binds | –
2 | GEBT403, mature IgG (antibody, V domains shown, also called mature GEBT403) VH: EVQLVQSGAEVKKPGSSVKVSCKASGYTFTDYYMHWVRQAPGQGLEWMGEINPKTGGTNYAQKFQGRVTMTRDTSTSTAYMELSSLRSEDTAIYSCARGGQRLIPLRRFYFYYWGQGVLVTVSS VL: QSVLTQPPSVSGAPGQKVTISCTGSSSNIGGYDVHWYQQLPGMAPKLLIYDNNERPSGISDRFSGSKSGTSASLAITGLQTEDEADYYCQSYDSSMNAWVFGGGTRLTVL | binds | binds | binds | –
3 | GEBT404, mature IgG (antibody, V domains shown) VH: EVQLVESGGGLAKPGGSLRLSCAASGFTFSNYWMYWVRQAPGKGLEWISAINSAGSRTYYPDSVKGRFTISRENAKNTLYLQMDSLRAEDTAVYYCAKGRIAIFGLVITYFDYWGQGVLVTVSS VL: DIQMTQSPSSLSASVGDRVTITCRASQGITNDLAWYQQKPGETPKLLIYDASSLQSGIPSRFSGSGSGTDFTLTISSLQPEDFATYYCQHYYSTPPTFGGGTKVEIK | binds | binds | binds | –
4 | GEBT412, mature IgG (antibody, V domains shown) VH: QVQLVESGGGLVQPGGSLRLACAASGFIFSNHGMHWVRQAPGKGLEWVAVIWYDGSEKYYADSVKDRFTISRDNSKNMLYLQMNNLKLVDTAVYYCARRGCTGSGCYLYYYGLDSWGQGVVVTVSS VL: DIQMTQSPSSLSASVGDTVTITCRASQGISSHLNWFQQKPGKAPKLLIYAATTLQSGVPSRFSGSGSGTDFTLTISSLQPEDFATYYCLQHNFYPYSFGQGTKVEIK | binds | binds | binds | –
5 | GEBT414, mature IgG (antibody, V domains shown) VH: EVQLVQSGAEVKRPGESLRISCKTSGYSFTGSWISWVRQMPGKGLDWMGNIYPGDSDTRYNPSFQGHVTISADKSISTTYLQWSSLKASDTATYYCAKGGGITIFGLLHYPLDSWGQGVVVTVSS VL: DIQMTQSPSSLSASVGDTVTITCRASQGINNWLAWYQQKPGKAPKLLIYKASSLQSGVPSRFSGSGSGTDFTLTISSLQSEDFATYYCQQYNSGPLTFGGGTKVEIK | binds | binds | binds | –
6 | GEBT383, mature IgG (antibody, V domains shown, also called non-CD4bs-directed mAb) VH: QVQLQESGPAVVKPSETLSLTCAVSGGSISSSNWWSWIRQSPGKGLEWIGGVYGSSGSTEYNPSLKSRVTISIDTSKNQFSLKLSSVTAADTAVYYCVRHCTWYNNIWNGYYNGFDYWGQGVLVTVSS VL: QSALTQPPSVSGAPGQRVTISCTGSSSNIGGYYVSWYQQLPGTVPKLLIYENKKRPSGVSDRFSGSKSGTSASLTITGLQPGDEADYYCSAWDNSLSSHVFGSGTKLTVL | – | – | binds | –
7 | GEBT391, inferred germline (igL) reverted IgG (antibody, V domains shown, also called igL GEBT391; gL-reverted GEBT391) VH: EVQLVESGGGLVQPGGSLRLSCAASGFTFSSYGMHWVRQAPGKGLEWVAVIWYDGSKKYYADSVKDRFTISRDNSKNMLYLQMNNLKLEDTAVYYCARRGCTGSGCYLYYYALDSWGQGVVVTVSS VL: DIQMTQSPSSLSASVGDTVTITCRASQGISSYLNWFQQKPGKAPKLLIYAASSLESGVPSRFSGSGSGTEFTLTISSLQPEDFATYYCLQHNFYPYSFGQGTKVEIK | binds | – | binds | binds
8 | GEBT404, inferred germline (igL) reverted IgG (antibody, V domains shown, also called igL GEBT404; gL-reverted GEBT404) VH: EVQLVESGGGLAKPGGSLRLSCAASGFTFSNYWMHWVRQAPGKGLEWISAINSAGSSTYYADSVKGRFTISRENAKNTLYLQMDGLRAEDTAVYYCAKGRIAIFGLVITYFDYWGQGVLVTVSS VL: DIQMTQSPSSLSASVGDRVTITCQASQGITNDLAWYQQKPGETPKLLIYEASSLQSGIPSRFSGSGSGTDFTLTISSLQSEDFATYYCQHYYSTPPTFGGGTKVEIK | binds | – | – | –
9 | GEBT412, inferred germline (igL) reverted IgG (antibody, V domains shown, also called igL GEBT412) VH: QVQLVESGGGLVQPGGSLRLSCAASGFTFSSYGMHWVRQAPGKGLEWVAVIWYDGSKKYYADSVKDRFTISRDNSKNMLYLQMNNLKLEDTAVYYCARRGCTGSGCYLYYYGLDSWGQGVVVTVSS VL: DIQMTQSPSSLSASVGDTVTITCRASQGISSYLNWFQQKPGKAPKLLIYAASSLESGVPSRFSGSGSGTEFTLTISSLQPEDFATYYCLQHNFYPYSFGQGTKVEIK | binds | – | – | binds
